In patent publication US20200207830A1, “TREM2 MUTANTS RESISTANT TO SHEDDASE CLEAVAGE” (NOVARTIS AG, priority 2017, published 2020):

T1: TREM2 stalk region derived synthetic peptide, Peptide 3
T1 chain: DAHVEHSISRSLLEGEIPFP

T2: TREM2 stalk region derived synthetic peptide, Peptide 4 (H-SI cleavage site replaced with IPP)
T2 chain: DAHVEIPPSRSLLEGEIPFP

T3: TREM2 stalk region derived synthetic peptide, Peptide 5 (H-SI cleavage site replaced with IPD)
T3 chain: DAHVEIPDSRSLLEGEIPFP

T4: TREM2 stalk region derived synthetic peptide, Peptide 6 (H-SI cleavage site replaced with IDP)
T4 chain: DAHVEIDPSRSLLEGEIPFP


Legend:
BWZ-lacZ-mDAP12 cells = test: Reporter gene assay in BWZ cells; type: cell-based; details: stably expressed with mDAP12, activating anti-TREM2 mAb vs isotype control, 16 h, compared with BWZ-TREM2-WT cells
Protocol: BWZ thymoma reporter cells, which express lacZ under control of the promoter for nuclear factor of activated T cells (NFAT, Hsieh et al, Journal of Neurochemistry 109, 1144-1156, 2009) were transfected to co-express mDAP12 and WT hTREM2 or T2double TREM2. Cells were seeded in RPMI without phenol red supplemented with 2% FBS and 1% non-essential amino acids on high binding microtiter plates (Greiner) pre-coated with rat anti-mouse/human TREM2 mAb (R&D, MAB17291) or isotype control. Cell culture was continued for 16 h. Reporter gene activity was assessed with the Beta-glo assay system (Promega) according to the manufacturer's recommendations using an Envision 2104 multilabel reader (Perkin Elmer).
Next it was tested whether the T2-double-TREM2 construct retained functionality. To this end this mutant was stably transfected into BWZ cells that already expressed mouse DAP12 and a beta-Gal reporter driven by NFAT (Hsieh, Journal of Neurochemistry 109, 1144-1156, 2009). mDAP12 expressed without TREM2 in this cell lines represents background reporter gene activity (RGA) in this system. […] Thus, the T2-double-TREM2 construct retained TREM2 functions.

[1] = molecular target: T1, TREM2 stalk region derived synthetic …
[2] = molecular target: T2, TREM2 stalk region derived synthetic …
[3] = molecular target: T3, TREM2 stalk region derived synthetic …
[4] = molecular target: T4, TREM2 stalk region derived synthetic …

| Molecule | Reporter gene activity (RGA) after TREM2 activation (BWZ-lacZ-mDAP12 cells) | in vitro cleavage of peptide by ADAM10, HPLC [1] | in vitro cleavage of peptide by ADAM10 [2] | in vitro cleavage of peptide by ADAM10 [3] | in vitro cleavage of peptide by ADAM10 [4] |
| --- | --- | --- | --- | --- | --- |
| T2-double: human TREM2 mutant combining T2-YGG and T2-WFR mutations; SEQ ID NO: 48 (protein) MEPLRLLILLFVTELSGAHNTTVFQGVAGQSLQVSCPYDSMKHWGRRKAWCRQLGEKGPCQRVVSTHNLWLLSFLRRWNGSTAITDDTLGGTLTITLRNLQPHDAGLYQCQSLHGSEADTLRKVLVEVLADPLDHRDAGDLWFPGESESFEDAHVYGGWGGWGPEGEIWFRWTSILLLLACIFLIKILAASALWAAAWHGQKPGTHPPSELDCGHDPGYQLQTLPGLRDT | comparable activity | – | – | – | – |
| recombinant ADAM10 (protein) TTSAEKNTCQLYIQTDHLFFKYYGTREAVIAQISSHVKAIDTIYQTTDFSGIRNISFMVKRIRINTTADEKDPTNPFRFPNIGVEKFLELNSEQNHDDYCLAYVFTDRDFDDGVLGLAWVGAPSGSSGGICEKSKLYSDGKKKSLNTGIITVQNYGSHVPPKVSHITFAHEVGHNFGSPHDSGTECTPGESKNLGQKENGNYIMYARATSGDKLNNNKFSLCSIRNISQVLEKKRNNCFVESGQPICGNGMVEQGEECDCGYSDQCKDECCFDANQPEGRKCKLKPGKQCSPSQGPCCTAQCAFKSKSEKCRDDSDCAREGICNGFTALCPASDPKPNFTDCNRHTQVCINGQCAGSICEKYGLEECTCASSDGKDDKELCHVCCMKKMDPSTCASTGSVQWSRHFSGRTITLQPGSPCNDFRGYCDVFMRCRLVDADGPLARLKKAIFSPELYENIAE | – | The same analysis was carried out with ADAM10, and a very similar cleavage pattern was obtained (data not shown) | Peptide 4, with its IPP replacement for the H-SI cleavage site, appeared to be cleavage resistant in vitro | Peptides 5 and 6 were slowly cleaved by ADAM10 (data not shown) | Peptides 5 and 6 were slowly cleaved by ADAM10 (data not shown) |
